These results are taken from patent US20250304658A1 (ICAHN SCHOOL OF MEDICINE AT MOUNT SINAI, published 2025).

The chains are these.
T1: BK virus VP1 protein, genotype I (BK virus, UniProt P03088 1-362)
T1 sequence: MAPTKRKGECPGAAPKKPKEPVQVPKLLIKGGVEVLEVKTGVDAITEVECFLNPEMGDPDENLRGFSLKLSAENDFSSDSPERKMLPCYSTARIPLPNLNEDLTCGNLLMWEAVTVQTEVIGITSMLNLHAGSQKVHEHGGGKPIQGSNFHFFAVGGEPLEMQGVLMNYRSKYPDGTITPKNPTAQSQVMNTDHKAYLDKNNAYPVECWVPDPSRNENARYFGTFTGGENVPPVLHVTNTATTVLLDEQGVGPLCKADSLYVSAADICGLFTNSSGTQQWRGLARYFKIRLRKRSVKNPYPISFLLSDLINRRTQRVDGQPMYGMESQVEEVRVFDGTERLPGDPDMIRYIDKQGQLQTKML

B1: 7H8 (antibody, V domains shown)
VH: EVQLLESGGGLVQPGGSLRLSCAASGFAFHTYDMTWVRQAPGKGLEWVSGVVGSGINTYYADSVKGRFTISRDNSKSTLYLQMNSLRAEDTAVYYCAKDSSSWFSLHYWGQGTLVTVSS
VL: DIQMTQSPSTLSASVGDRVTITCRASQSISNWLAWYQQKPGKAPKLLIYKASSLESGVPSRFSGSGSGTDFTLTISSLQPDDFASYYCQQYRSYAYTFGQGTKLEIT
B2: 7E5 (antibody, V domains shown)
VH: EVQLLESGGGLIQPGGSLRLSCAASGFTFSGFAMSWVRQAPGKGLEWVSGISGSGDITYYGDSVKGRFTISRDNSKSTLYLQMNSLRDADTAVYYCGKDPYNWNHGVYGMDVWGQGTTVTVSS
VL: DIQMTQSPSSLSASVGDRVTITCRASQSISTYLNWYQQKPGKAPKFLIYGASSLQSGVPSRFSGSGSGTDFSLTISSLHPGDFATYYCQQSYNIPLTFGGGTKVEIK
B3: 7A4 (antibody, V domains shown)
VH: QVQLVESGGDLVKPGGSLRLSCVASGFTFSDYYMNWIRLPPGKGLEWISYIDSSAGAIYYADSVKGRFTVSRDDAKNSLFLHMNSLRADDTAVYYCVRERRDGHKIFDYWGPGTLVTVSS
VL: DIVMTQSPDSLAVSLGERATINCKSSQNILYSSNNKNYLAWYQQKAGQPPKLLIFWSSIRESGVPDRFSGSGSGTDFTLTISSLQAEDVAVYYCQQYYSSPYNFGRGTTLEIK
B4: 9B4 (antibody, V domains shown)
VH: B3 VH with V97A, D102E, Y109F
VL: B3 VL with V13L, W41C, I59T
B5: 1E2 (antibody, V domains shown)
VH: B3 VH with I48V, K65R, V97A, Y109C
VL: B3 VL with I59T, S82N
B6: 2H1 (antibody, V domains shown)
VH: B3 VH with V97A, Y109C
VL: B3 VL with A46T, I59T
B7: 5A8 (antibody, V domains shown)
VH: B3 VH with K43R, N77K, H82Y, V97A
VL: B3 VL with I59T, Q95H
B8: 1H10 (antibody, V domains shown)
VH: B3 VH with Q3H, L39M, S85N, V97A, Y109C
VL: B3 VL with I59T
B9: 4F7 (antibody, V domains shown)
VH: B3 VH with S85N, V97A, Y109C
VL: B3 VL with I59T
B10: 8A11 (antibody, V domains shown)
VH: B3 VH with I58T, D89E, V97A, D102S, Y109C
VL: B3 VL with I59T
B11: 2F7 (antibody, V domains shown)
VH: B3 VH with D10G, K43R, E46Q, F80Y, H82Q, V97A, Y109W, P112Q
VL: B3 VL with S32T, A40G, F55Y, I59T, E61N, Q95H, N103T, R106Q, T109N
B12: 8D10 (antibody, V domains shown)
VH: B3 VH with Q3H, L79M, V97A
VL: B3 VL with I59T
B13: 4E6 (antibody, V domains shown)
VH: EVQLVESGGDLVQPGRSLRLSCAASGFTFDDYAMHWVRQGPGKGLEWVSGISWSGVTMGYADSVKGRFTISRDNAKNSLYLRMNSLRADDTAFYYCARGDGTNAFDIWGHGTMVTVSS
VL: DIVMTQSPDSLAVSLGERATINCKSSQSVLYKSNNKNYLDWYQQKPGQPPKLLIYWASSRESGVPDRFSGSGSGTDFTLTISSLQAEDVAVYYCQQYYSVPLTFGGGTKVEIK
B14: 6H12 (antibody, V domains shown)
VH: EVQLVESGGGLVQPGGSLRLSCAASGFTFSSYEMNWVRQAPGKGLEWVSYISSGGSSIKYADSVRGRFAFSRDNAENSVHLQMNSLRAEDTAVYYCARVGGSYYYSYAMDVWGQGTAVTVSS
VL: DIQLTQSPSFLSASVGDRVTITCWASQDISSYLAWYQQKPGKAPKLLIYAASTLQSGVPSRFTGSGSGTEFTLTISSLQPEDFATYYCQQPHNSPFSFGPGTKVDVK
B15: 11D12 (antibody, V domains shown)
VH: B14 VH with A69T, H80F, A88G
VL: B14 VL with T63S, H92N, S94Y
B16: 14F5 (antibody, V domains shown)
VH: EVQLLESGGGLVQPGGSLRLSCAVSGFTFSSFAMSWVRQAPGKGLEWVSGISASGGTTNYADSVKGRFTISRDNSKNTLYLQMSSLRAEDTAEYYCAKDRFLEWVEGFDPWGQGILVTVSP
VL: DIQMTQSPSSLSASVGDRVTITCRASQSIGRFLIWYQQKPGKAPKLLLYATSSLQSGVPARFTGSGSGTDFTLTIGSLQPEDFATYYCQQSYITPLTFGGGTKVEIK
B17: 9G9 (antibody, V domains shown)
VH: EVQLLESGGGLVQPGGSLRLSCAASGFTFHNYAMSWVRQAPGKGLEWVSGISGSGGTAYYADSVKGRFTISRDNSKNTLYLQMNSLRADDTALYYCAKDRFLEWVEGFDSWGQGTLVTVSS
VL: B16 VL with R31S, L48I, T51A, A60S, T63S, T74I, G76S, I93N
B18: 15C10 (antibody, V domains shown)
VH: B16 VH with V24A
VL: B16 VL

Positions count from the first letter of the chain named. “And” between values parts separate entries of the source, which are not always exact repeats. Equal values may be shown once.

The target of the first assay is BK virus VP1 protein, genotype IV (BK virus). In words: cell-based or functional assay.
Consider B1, for which the “EC50, pseudovirus neutralization” value was 0.0943 nM.
Consider B2, for which the “EC50, pseudovirus neutralization” value came to 0.133 nM.
For the molecule B3, the “EC50, pseudovirus neutralization” value came out at 0.0251 nM.
Still for that read-out and setting: to B4 belongs 0.0118 nM.
On to B5, for which the “EC50, pseudovirus neutralization” value is 0.143 nM.
As to B6, the “EC50, pseudovirus neutralization” value was 0.0728 nM and 0.0815 nM.
On to B7, for which the “EC50, pseudovirus neutralization” value was found to be 0.0774 nM.
In the case of B8, the “EC50, pseudovirus neutralization” value was found to be 0.107 nM.
As for B9, the “EC50, pseudovirus neutralization” value was found to be 0.0416 nM.
As for B10, the “EC50, pseudovirus neutralization” value worked out at 0.0948 nM.
Consider B11, for which the “EC50, pseudovirus neutralization” value worked out at 0.0724 nM.
With B12, the “EC50, pseudovirus neutralization” value amounted to 0.0894 nM.
With B13, the “EC50, pseudovirus neutralization” value stood at 0.0197 nM.
Regarding B14, the “EC50, pseudovirus neutralization” value came to 2.21 nM.
Turning to B15, the “EC50, pseudovirus neutralization” value is above 6.67 nM.
Take B16: the “EC50, pseudovirus neutralization” value came to 0.0671 nM.
With B17, the “EC50, pseudovirus neutralization” value was 0.11 nM.
The same measure, in the same setting: to B18 belongs 0.0423 nM.

The next assay has as its target T1, BK virus VP1 protein, genotype I. In words: cell-based or functional assay.
On to B2, for which the “EC50, pseudovirus neutralization” value was 0.0249 nM.
For B13, the “EC50, pseudovirus neutralization” value was above 6.67 nM.

The target of another assay is BK virus VP1 protein, genotype III (BK virus). The assay is described as follows: cell-based or functional assay.
As for B1, the “EC50, pseudovirus neutralization” value was determined as 0.0334 nM.
For B2, the “EC50, pseudovirus neutralization” value came to 0.415 nM.
On to B3, for which the “EC50, pseudovirus neutralization” value is 0.0081 nM.
As to B4, the “EC50, pseudovirus neutralization” value stood at 0.0118 nM.
Regarding B5, the “EC50, pseudovirus neutralization” value amounted to 0.0081 nM.
On the same count and under the same terms, next, B7: 0.0039 nM; B8: 0.0397 nM; B9: 0.0143 nM.
Still for that read-out and setting: to B10 belongs 0.0315 nM; to B11, 0.0022 nM.
B12: the “EC50, pseudovirus neutralization” value amounted to 0.029 nM.
As for B13, the “EC50, pseudovirus neutralization” value was found to be 0.0296 nM.
For B14, the “EC50, pseudovirus neutralization” value amounted to 0.127 nM.
Still for that read-out and setting: next, B15: 6.38 nM.
For the molecule B16, the “EC50, pseudovirus neutralization” value stood at 0.0215 nM.
B17: the “EC50, pseudovirus neutralization” value amounted to 1.7 nM.
Still for that read-out and setting: to B18 belongs 0.0211 nM.

The target of the next assay is BK virus VP1 protein, genotype II (BK virus). In words: cell-based or functional assay.
In the case of B1, the “EC50, pseudovirus neutralization” value came to 0.05 nM.
Still for that read-out and setting: to B2 belongs 1.16 nM.
With B3, the “EC50, pseudovirus neutralization” value worked out at 0.0132 nM.
On to B4, for which the “EC50, pseudovirus neutralization” value was 0.0152 nM.
As to B5, the “EC50, pseudovirus neutralization” value amounted to 0.0332 nM.
On the same count and under the same terms, next, B7: 0.0009 nM; B8: 0.0028 nM; B9: 0.0319 nM.
As to B10, the “EC50, pseudovirus neutralization” value was 0.0014 nM.
B11: the “EC50, pseudovirus neutralization” value came out at 0.0011 nM.
As to B12, the “EC50, pseudovirus neutralization” value was found to be 0.0492 nM.
Consider B13, for which the “EC50, pseudovirus neutralization” value was 0.0021 nM.
Turning to B14, the “EC50, pseudovirus neutralization” value amounted to 0.0109 nM.
On the same count and under the same terms, to B15 belongs 0.0095 nM; to B16, 0.0131 nM; to B17, 0.0032 nM.
As to B18, the “EC50, pseudovirus neutralization” value came out at 0.0131 nM.

In a further assay the target is BK virus VP1 protein, genotype IV (BK virus). The assay is described as follows: cell-based or functional assay. The source holds these as a separate data set.
As to B14, the “EC50, pseudovirus neutralization (mAb mixed with irrelevant isotype matched mAb M2)” value amounted to 0.944 nM.
On the same count and under the same terms, next, B17: 0.196 nM.
B18: the “EC50, pseudovirus neutralization” value amounted to 0.0023 nM.

In a further assay the target is BK virus VP1 protein, genotype III (BK virus). The assay is described as follows: cell-based or functional assay. The source holds these as a separate data set.
Consider B14, for which the “EC50, pseudovirus neutralization (mAb mixed with irrelevant isotype matched mAb M2)” value turned out to be 0.172 nM.
As to B17, the “EC50, pseudovirus neutralization (mAb mixed with irrelevant isotype matched mAb M2)” value was determined as 1.29 nM.
Take B18: the “EC50, pseudovirus neutralization” value came to 0.00186 nM.

The next assay addresses BK virus VP1 protein, genotype II (BK virus). In words: cell-based or functional assay. This is another data set of the same source.
As to B14, the “EC50, pseudovirus neutralization (mAb mixed with irrelevant isotype matched mAb M2)” value was 0.0024 nM.
As to B17, the “EC50, pseudovirus neutralization (mAb mixed with irrelevant isotype matched mAb M2)” value was 0.0023 nM.
For B18, the “EC50, pseudovirus neutralization” value was 0.00058 nM.
